Experimental data published in patent US20260232732A1 (FUNDACI INSTITUT DE RECERCA CONTRA LA LEUC MIA JOSEP …, published 2026).
Where no end group is shown, it is not given here.

Tests used:
[1] = biological target: T1, Peptide 2-BSA (GSESTSSMED-C conjugated to BSA) (human); test: ELISA; Ab 0.0625 ug/mL; repII
T1 peptide: GSESTSSMEDC(BSA)
Experimental: (§1) In brief, plates with each non-conjugated peptide (50 μg/mL) or BSA-conjugated peptide (5 μg/mL) were coated in 0.58M carbonate-bicarbonate buffer pH9.5, 100 μL/well, at 4° C. […] After washing, wells were incubated with the 3, 3′,5,5′-Tetramethylbenzidine (TMB) HRP substrate and reactions were stopped with 2M HCl and OD450 was recorded.

[2] = biological target: T2, Peptide 4, non-conjugated (SMEDYVNFNF-C) (human); test: ELISA; Ab 0.0625 ug/mL; repII
T2 construct: With the extra C-terminal Cys
T2 peptide: SMEDYVNFNFC
Experimental: as §1

[3] = biological target: T3, Peptide 2, non-conjugated (GSESTSSMED-C) (human); test: ELISA; Ab 0.0625 ug/mL; repII
T3 construct: With the extra C-terminal Cys
T3 peptide: GSESTSSMEDC
Experimental: as §1

[4] = biological target: T4, Peptide 1-BSA (MADDYGSEST-C conjugated to BSA) (human); test: ELISA; Ab 0.0625 ug/mL; repII
T4 peptide: MADDYGSESTC(BSA)
Experimental: as §1

[5] = biological target: T5, Peptide 1, non-conjugated (MADDYGSEST-C) (human); test: ELISA; Ab 0.0625 ug/mL; repII
T5 construct: With the extra C-terminal Cys
T5 peptide: MADDYGSESTC
Experimental: as §1

[6] = biological target: T6, antigen peptide-BSA (immunisation peptide #1 MADDYGSESTSSMEDYVNFNF-C conjugated to BSA) (human, extra C-terminal Cys conjugated to BSA); test: ELISA; Ab 0.0625 ug/mL; repII
T6 construct: also called Positive control antigen peptide-BSA; MADDY peptide
T6 peptide: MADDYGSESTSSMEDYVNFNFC
Experimental: as §1

[7] = biological target: T7, Peptide 3, non-conjugated (SSMEDYVNFN-C) (human); test: ELISA; Ab 0.0625 ug/mL; repII
T7 construct: With the extra C-terminal Cys
T7 peptide: SSMEDYVNFNC
Experimental: as §1

[8] = biological target: T8, BSA (negative control coating) (bovine, UniProt P02769 25-607); test: ELISA; Ab 0.5 ug/mL; repII
T8 construct: also called Negative control BSA
Experimental: as §1

[9] = biological target: T1, Peptide 2-BSA (GSESTSSMED-C conjugated …); test: ELISA; Ab 0.5 ug/mL; repII
Experimental: as §1

[10] = biological target: T9, Peptide 3-BSA (SSMEDYVNFN-C conjugated to BSA) (human); test: ELISA; Ab 0.5 ug/mL; repII
T9 peptide: SSMEDYVNFNC(BSA)
Experimental: as §1

[11] = biological target: T2, Peptide 4, non-conjugated (SMEDYVNFNF-C); test: ELISA; Ab 0.5 ug/mL; repII
Experimental: as §1

[12] = biological target: T3, Peptide 2, non-conjugated (GSESTSSMED-C); test: ELISA; Ab 0.5 ug/mL; repII
Experimental: as §1

[13] = biological target: T4, Peptide 1-BSA (MADDYGSEST-C conjugated …); test: ELISA; Ab 0.5 ug/mL; repII
Experimental: as §1

[14] = biological target: T5, Peptide 1, non-conjugated (MADDYGSEST-C); test: ELISA; Ab 0.5 ug/mL; repII
Experimental: as §1

[15] = biological target: T10, Peptide 4-BSA (SMEDYVNFNF-C conjugated to BSA) (human); test: ELISA; Ab 0.5 ug/mL; repII
T10 peptide: SMEDYVNFNFC(BSA)
Experimental: as §1

[16] = biological target: T6, antigen peptide-BSA (immunisation …); test: ELISA; Ab 0.5 ug/mL; repII
Experimental: as §1

[17] = biological target: T7, Peptide 3, non-conjugated (SSMEDYVNFN-C); test: ELISA; Ab 0.5 ug/mL; repII
Experimental: as §1

[18] = biological target: T8, BSA (negative control coating); test: ELISA; Ab 0.03125 ug/mL; repI
Experimental: as §1

[19] = biological target: T1, Peptide 2-BSA (GSESTSSMED-C conjugated …); test: ELISA; Ab 0.03125 ug/mL; repI
Experimental: as §1

[20] = biological target: T9, Peptide 3-BSA (SSMEDYVNFN-C conjugated …); test: ELISA; Ab 0.03125 ug/mL; repI
Experimental: as §1

[21] = biological target: T2, Peptide 4, non-conjugated (SMEDYVNFNF-C); test: ELISA; Ab 0.03125 ug/mL; repI
Experimental: as §1

[22] = biological target: T3, Peptide 2, non-conjugated (GSESTSSMED-C); test: ELISA; Ab 0.03125 ug/mL; repI
Experimental: as §1

[23] = biological target: T4, Peptide 1-BSA (MADDYGSEST-C conjugated …); test: ELISA; Ab 0.03125 ug/mL; repI
Experimental: as §1

[24] = biological target: T5, Peptide 1, non-conjugated (MADDYGSEST-C); test: ELISA; Ab 0.03125 ug/mL; repI
Experimental: as §1

[25] = biological target: T10, Peptide 4-BSA (SMEDYVNFNF-C conjugated …); test: ELISA; Ab 0.03125 ug/mL; repI
Experimental: as §1

[26] = biological target: T6, antigen peptide-BSA (immunisation …); test: ELISA; Ab 0.03125 ug/mL; repI
Experimental: as §1

[27] = biological target: T7, Peptide 3, non-conjugated (SSMEDYVNFN-C); test: ELISA; Ab 0.03125 ug/mL; repI
Experimental: as §1

[28] = biological target: T9, Peptide 3-BSA (SSMEDYVNFN-C conjugated …); test: ELISA; Ab 0.125 ug/mL; repII
Experimental: as §1

[29] = biological target: T4, Peptide 1-BSA (MADDYGSEST-C conjugated …); test: ELISA; Ab 0.125 ug/mL; repII
Experimental: as §1

[30] = biological target: T6, antigen peptide-BSA (immunisation …); test: ELISA; Ab 0.125 ug/mL; repII
Experimental: as §1

T8 sequence (P02769 25-607 limits assumed): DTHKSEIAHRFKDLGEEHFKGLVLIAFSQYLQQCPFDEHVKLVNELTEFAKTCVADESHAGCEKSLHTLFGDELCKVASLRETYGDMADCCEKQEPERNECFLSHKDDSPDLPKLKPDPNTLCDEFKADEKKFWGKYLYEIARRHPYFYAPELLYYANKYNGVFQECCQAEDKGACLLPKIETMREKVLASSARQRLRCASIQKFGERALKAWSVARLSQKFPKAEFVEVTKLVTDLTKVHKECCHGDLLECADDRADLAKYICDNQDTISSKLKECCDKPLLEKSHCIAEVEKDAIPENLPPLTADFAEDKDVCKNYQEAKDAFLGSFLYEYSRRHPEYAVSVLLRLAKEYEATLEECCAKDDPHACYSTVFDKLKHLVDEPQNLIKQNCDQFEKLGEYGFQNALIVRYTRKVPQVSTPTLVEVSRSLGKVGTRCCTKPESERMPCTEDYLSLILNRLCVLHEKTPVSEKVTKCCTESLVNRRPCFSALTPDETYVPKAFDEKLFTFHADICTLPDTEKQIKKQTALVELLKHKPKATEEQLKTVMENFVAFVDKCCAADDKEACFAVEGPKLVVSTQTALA

B1: anti-CCR9 antibody clone 115 (murine, from hybridoma #115) (antibody, V domains shown)
VH: QVQLKQSGPELVKPGTSVRVSCTASGYSFTDYIIYWVKQSHGRSLEWIGYIDPNNYNTRYSQKFKGKATLTVDKSSTSAFMHLNSLTSDDSAVYYCARDVYWGQGTTLTVSS
VL: DVVMTQTPLSLTVSLGDQASISCRSSQSLVHSNGKTYLQWYLQKPGQSPKLLIYKVSNRFSGVPDRFSGSGSGTDFTLKISRVEAEDLGVYFCAQSTHVWTFGGGTKLEIKR
notes: Mouse IgG1
In the case of B1, the OD450 [1] is reported as 0.01 OD, the OD450 [2] is reported as 1.19 OD and the OD450 [3] is reported as 0.01 OD. For the same binder, the OD450 [4] was 0.01 OD, the OD450 [5] was 0.01 OD and the OD450 [6] was 2.08 OD. The OD450 [7] was 1.67 OD, the OD450 [8] was 0.02 OD and the OD450 [9] was 0.02 OD. For the same binder, the OD450 [10] was 2.06 OD, the OD450 [11] was 2.37 OD and the OD450 [12] was 0.02 OD. It also gave an OD450 [13] of 0.02 OD, an OD450 [14] of 0.02 OD and an OD450 [15] of 2.65 OD. The OD450 [16] was 2.57 OD, the OD450 [17] was 1.83 OD and the OD450 [18] was 0.01 OD. It also gave an OD450 [19] of 0.01 OD, an OD450 [20] of 1.66 OD and an OD450 [21] of 0.67 OD. The OD450 [22] was 0.01 OD, the OD450 [23] was 0.01 OD and the OD450 [24] was 0.01 OD. The OD450 [25] was 1.44 OD, the OD450 [26] was 1.28 OD and the OD450 [27] was 1.65 OD. It also gave an OD450 [28] of 1.97 OD, an OD450 [29] of 0.01 OD and an OD450 [30] of 2.31 OD.
